Measured values: US5827498A, “Tumor affinity peptide, and radioactive diagnostic agent and radioactive therapeutic agent containing the peptide” (Nihon Medi-Physics Co., Ltd., priority 1994, dated 1998)
Like-named read-outs stand apart in the source and are kept apart here. Blank lines part the entries; values can stand above or below the substance they belong to. No end group written: not given here.

Legend:
[1] = Time course of technetium-99m labeling yield in vitro (HPLC); format: physicochemical
Protocol: To 40.3 μmol/300 μl of glucoheptanate was added 130 nmol/50 μl of stannous chloride and 1049 MBq of sodium pertechnetate, and the entire volume was adjusted to 1.3 ml. After stirring, the mixture was left to stand still for 30 minutes at room temperature and then the labeling purity of glucoheptanate was confirmed to be 95% or more by cellulose acetate membrane electrophoresis. 242 MBq/300 μl of the mixture was added to 0.46 μmol/300 μl of peptide-1 obtained in Example 1 and the reaction was completed in a hot water bath at 100° C. in 20 minutes to yield the target technetium-99m-peptide-1. After cooling at room temperature, the peptide was confirmed to have a labeling purity of 98.3% according to HPLC method.
After technetium-99m-peptide-1 obtained in Example 6 and technetium-99m-peptides-2 to 4 obtained by the same method as in Example 6 were left to stand still for 1, 3 and 6 hours, the time course changes of technetium-99m labeling yield of the peptides were studied using liquid chromatography (HPLC method) under the following conditions:
Column: Millipore puresil 5 μm C18 (4.6×150 mm),
Eluent A: 0.1% TFA/purified water,
Eluent B: 0.1% TFA/acetonitrile,
Concentration gradient: 0 min. (10% B)→5 mins. (10% B)→35 mins. (50% B)→45 mins. (75% B).

[2] = In vitro stability of technetium-99m labeled peptide in human plasma (HPLC); format: in vitro ADME
Protocol: Technetium-99m-peptide-8 obtained in Example 8 was mixed with 10-fold equivalent of human plasma (ROCKLAND Inc.: STERILE PLASMA containing EDTA) and the mixture was incubated at 37° C. A mixture of technetium-99m-peptide-1 obtained in Example 6 was also prepared by the same method.
The mixture was filtered through a 0.2 μm membrane filter 5 minutes and 30 minutes after the mixing, and was subjected to HPLC analysis. In vitro stability was evaluated by comparing the pattern of HPLC with that of peptide-1 before the mixing procedure. The HPLC profiles of technetium-99m-peptide-1 and of each of the above technetium-99m-labeled peptides mixed with plasma at 4° C. at the 5 and 30 minute points and at 37° C. at the 5 and 30 minute points are shown in FIGS. 7, 8, 9, 10, 11, 12, 13, 14 and 15.

[3] = set-up: species or system SD rats (Sprague-Dawley Rats); details: rat, in vivo
Protocol: To SD rats (Sprague-Dawley Rats) weighing 140 to 200 grams and previously Ravonal anesthetized, technetium-99m-peptide-1 obtained in Example 6, technetium-99m-peptide-2, 3 and 4 obtained in Example 7, technetium-99m-peptide-5, 6, 7, 8, 9, 10, 11, 12, 13 and KYCAREPPTRTNAYWGQG (hereinafter referred to as "peptide-14") prepared according to the method of Example 6 were each administered to the tail vein in an amount of 35 MBq to 45 MBq. The animals were sacrificed 5, 30, 60 and 180 minutes later to determine distribution ratio of radioactivity in various organs using a single channel counter.

[4] = molecular target: T1, epitope VTSAPDTRPAPGST of mucin core protein conjugated to bovine serum albumin (BSA) (Homo sapiens, UniProt P15941); format: binding
T1 construct: made in house; host or cells: chemical peptide synthesis (no expression host)
Protocol: The epitope VTSAPDTRPAPGST of mucin core protein, to which the conventional peptide YCAREPPTRTNAYWG is known to bind, was synthesized and further conjugated to bovine serum albumin (BSA). The conjugated peptide was used as an artificial antigen to measure antigen affinity of peptide-14 by radioimmunoassay (RIA). The assay will be described below in detail.
Each 200 μl of 10 μg/ml solution of the artificial antigen in 50 mmol sodium carbonate buffer of a pH of 9.5 was added to each of 2 ml tubes containing polystyrene beads of 6.35 mm in diameter. The tubes were stood still overnight at 4° C. Then, the inside of the tubes was washed three times by a washing agent of 0.05%(v/v) Tween 20 PBS (phosphate buffer saline, pH 7.5). In order to block the portions to which the artificial antigen is not bound of the surface of the polystyrene beads, 200 μl of 1% BSA-PBS was each added to each of the tubes. The tubes were stood still for 3 hours at room temperature. Then, the inside of the tubes was washed three times.
Peptide-14 was diluted to 500, 100, 50, 10, 5, 1, 0.5, 0.1 and 0.05 μg/ml with PBS containing 1% PRIONEX™ (an albumin substitute of Pentapharm, Ltd.). […] Each of the diluted peptide-containing solutions was added to each of the […] tubes, followed by adding thereto 100 μl of the previously-prepared antibody solution. The tubes were stood still for 3 hours. Then, the inside of the tubes was washed three times with the washing agent.
A sheep antimouse antibody labelled with iodine-125 (3.7 MBq/ml, made by Amersham Co.) was diluted 100-fold with 1% BSA-PBS. To each of the tubes, 200 μl of the diluted antimouse antibody was added. Then, the tubes were stood still for 2 hours at 37° C. Then, the inside of the tubes was washed three times with the washing agent, and radioactivity was measured by use of an auto well gammma ray counter.

Substance: KYCAREPPTRTFAYWGQG [peptide-1]
- technetium-99m labeling yield ([1]; 1 hr. standing after labeling): ≥ 98%
- technetium-99m labeling yield ([1]; 1 hr. standing after labeling, listed as Peptide-1): 98.3%
- technetium-99m labeling yield ([1]; 3 hr. standing after labeling): 97.2%
- technetium-99m labeling yield ([1]; 6 hr. standing after labeling): ≥ 96%
- technetium-99m labeling yield ([1]; 6 hr. standing after labeling, listed as Peptide-1): 96.6%
- % of unidentified radioactive substance in plasma ([2]; 5 mins. later/4° C.): 5.3%
- % of unidentified radioactive substance in plasma ([2]; 5 mins. later/37° C.): 12.4%
- % of unidentified radioactive substance in plasma ([2]; 30 mins. later/4° C.): 40.1%
- % of unidentified radioactive substance in plasma ([2]; 30 mins. later/37° C.): 59.4%

Substance: YCAREPPTRTFAYWGQG [peptide-4]
- technetium-99m labeling yield ([1]; 1 hr. standing after labeling): 81.5%
- technetium-99m labeling yield ([1]; 3 hr. standing after labeling): below 95%
- technetium-99m labeling yield ([1]; 3 hr. standing after labeling, listed as Peptide-4): 81.2%
- technetium-99m labeling yield ([1]; 6 hr. standing after labeling): 79.9%

Substance: KYCAD-REPPTD-RTFAYWGQG [peptide-9]
- radioactivity in liver and small intestines compared with peptides having corresponding L-Arg [3]: reduced percentages of radioactivity in liver and small intestines

Substance: YCAREPPTRTNAYWG [peptide-2, conventional peptide without N-terminal Lys, used for comparison]
- technetium-99m labeling yield ([1]; 1 hr. standing after labeling): 85.5%
- technetium-99m labeling yield ([1]; 3 hr. standing after labeling): below 95%
- technetium-99m labeling yield ([1]; 3 hr. standing after labeling, listed as Peptide-2): 71.8%
- technetium-99m labeling yield ([1]; 6 hr. standing after labeling): 78.5%

Substance: YCAREPPTRTFAYWG [peptide-3, peptide without N-terminal Lys, used for comparison]
- technetium-99m labeling yield ([1]; 1 hr. standing after labeling): 96.3%
- technetium-99m labeling yield ([1]; 3 hr. standing after labeling): below 95%
- technetium-99m labeling yield ([1]; 3 hr. standing after labeling, listed as Peptide-3): 88.9%
- technetium-99m labeling yield ([1]; 6 hr. standing after labeling): 84.4%

Substance: KYCAD-REPPTRTFAYWGQG [peptide-7]
- radioactivity in liver and small intestines compared with peptides having corresponding L-Arg [3]: reduced percentages of radioactivity in liver and small intestines

- binding percentage ([4]; 5.0e-8 g/ml): 29.517%
- binding percentage ([4]; 1.0e-7 g/ml): 27.890%
- binding percentage ([4]; 5.0e-7 g/ml): 42.941%
- binding percentage ([4]; 1.0e-6 g/ml): 38.129%
- binding percentage ([4]; 5.0e-6 g/ml): 50.293%
- binding percentage ([4]; 1.0e-5 g/ml): 60.056%
- binding percentage ([4]; 5.0e-5 g/ml): 60.869%
- binding percentage ([4]; 1.0e-4 g/ml): 58.585%
- binding percentage ([4]; 5.0e-4 g/ml): 63.669%
Substance: KYCAREPPTRTNAYWGQG [peptide-14, KYCAREPPTRTNAYWGQG]

Substance: KYCAD-REPPTD-RTFAYD-WGQG [peptide-10]
- radioactivity in liver and small intestines compared with peptides having corresponding L-Arg [3]: reduced percentages of radioactivity in liver and small intestines
